This is an account of results in patent US20100105567A1, “NOVEL CAPTURE AGENTS FOR BINDING A LIGAND” (priority 2005, published 2010).

Holding throughout (type): physicochemical
The nature of data set [1]: Retention of arrayed peptides on a polypropylene sheet after successive washes. The note with it: for Corrected signal: slide background subtracted. On the procedure:
Further experiments were undertaken to investigate the retention of peptides P1-1 to P1-5 and P2-1 to P2-2, shown in Table 3, on a polypropylene surface.
The polypropylene sheet was wiped with 50% (v/v) aqueous acetonitrile prior to use.
8×replicate 20 nl volumes of 1 μM peptides P1-1 to P1-5 and P2-1 to P2-2 and TAMRA in dimethyl sulphoxide (DMSO) were dispensed at 1 mm spacing to a 3″×1″×1 mm polypropylene sheet using the Piezorray system (PerkinElmer LAS). 500 drops were pre-dispensed using the ‘side shoot’ option and the tuning was set to 72V for 30 μs.
The slide was imaged at 10 μm resolution on a Typhoon Trio Plus variable mode imager (Amersham Biosciences) with the green (532 nm) laser and the 580 BP 30 filter at a PMT voltage of 600 V and at normal sensitivity. The scan height was set at the platen and the samples were pressed during scanning. The fluorescence image was analysed using ImageQuant TL v2003.03 (Amersham Biosciences).
The lower half of the slide (containing the test array) was then washed in 100 ml of 1 M NaCl containing 10 mM tris-HCl (pH 8.0) for one minute and were re-scanned as described above.
The same half of the slide was then washed for a second time in 100 ml of 1 M NaCl containing 10 mM tris-HCl (pH 8.0) for 30 minutes and re-scanned as described above.
The same half of the slide was then washed for a third time in 100 ml of water for 30 minutes and re-scanned as described above.

Data set [2] is described as follows: pH resistance of peptide deposited onto polypropylene. The note with it: maximal retention at low and high pH, minimal around pH 6.5. The protocol:
The pH resistance of peptide 2DOS-2 (see above) deposited onto a polypropylene hydrophobic surface was investigated:
Twelve 50 μl aliquots of peptide 2DOS-2 in 10 mM tris-HCl (pH 8.0) in 50% (v/v) aqueous acetonitrile were dried down in the wells of a Costar microtitre plate.
(§1) The peptide samples were allowed to evaporate to dryness in the dark.
The dried peptide samples in the first eleven wells were incubated with 200 μl of 100 mM phosphate buffer for 30 minutes at room temperature according to the scheme shown in Table 7:
All supernatants were pipetted off and the residual surface-bound peptides in all twelve wells were finally resuspended in 50 μl of 10,mM tris-HCl (pH 8.0) in 50% (v/v) aqueous acetonitrile and the microtitre plate was imaged at 200 μm resolution on a Typhoon Trio Plus variable mode imager (Amersham Biosciences) with the green (532 nm) laser and the 580 BP 30 filter at the PMT voltages indicated below and at normal sensitivity. The scan height was set at +3 mm and the sample was pressed during scanning.
(§2) The fluorescence images were analysed using ImageQuant TL v2003.03 (Amersham Biosciences).
Quantification data for peptide 2DOS-2 retention (using data from the 300V scan) are given in Table 8 and graphically in FIG. 16: […]

Data set [3] can be described thus: Time-dependent persistence of peptide on polypropylene in aqueous buffer. To be noted: 1 M NaCl/10 mM tris-HCl (pH 8.0). The protocol:
The time-dependent persistence of peptide 2DOS-2 (see above) deposited onto a polypropylene hydrophobic surface in the presence of aqueous buffer was investigated as shown below:
Twelve 100 μl aliquots of 5 μM peptide 2DOS-2 in 5 mM tris-HCl (pH 8.0) in 75% (v/v) aqueous acetonitrile were dispensed to the wells of the top row of a Costar microtitre plate.
as §1
The dried peptide samples in wells 1-10 were incubated with 250 μl of 1 M NaCl in 10 mM tris-HCl (pH 8.0) for the time indicated below at room temperature. All supernatants were pipetted up and down 8 times after incubation and the supernatants were then removed and placed in the wells of the bottom row of the microtitre plate. […]
as §2
Fluorescence data for the time-dependent persistence of peptide 2DOS-2 deposited onto a polypropylene hydrophobic surface in the presence of aqueous buffer are shown in FIG. 17: […]

Where [4] appears, read: Control array (not washed), scan after first wash.
The mark [5] stands for this setting: Control array (not washed), scan after second wash.
The mark [6] stands for this setting: Control array (not washed), scan after third wash.
The mark [7] stands for this setting: Test array, after first wash (1 M NaCl, 10 mM tris-HCl pH 8.0, one minute).
Setting [8] is: Test array, after second wash (1 M NaCl, 10 mM tris-HCl pH 8.0, 30 minutes).
[9] abbreviates: Test array, after third wash (water, 30 minutes).

No end group written: not given here. TAMRA = rhodamine dye label at the N-terminus (mixture of 5- and 6-isomers)

As to “TAMRA-F-G-F-G-F-G-F-G-F-S-F-A-F-D-F-G-F ({TAMRA}-FGFGFGFGFSFAFDFGF) [Peptide P1-4]”, the Average fluorescence in data set [1] (setting [4]) is 187,287,630; in data set [1] (setting [5]), 179,942,418; in data set [1] (setting [6]), 176,102,487; in data set [1] (setting [7]), 189,823,310; in data set [1] (setting [8]) it was 159,100,527; in data set [1] (setting [9]), 135,681,173. Moreover, the Corrected signal in data set [1] (setting [4]) is reported as 40,595,958; in data set [1] (setting [5]) it was 42,662,569; in data set [1] (setting [6]), 42,195,247; in data set [1] (Test array, after first wash) it was 35,325,352; in data set [1] (Test array, after second wash) it was 26,653,223; in data set [1] (Test array, after third wash) it was 11,383,947.
Take “N-TAMRA-Phe-Asp-Phe-Ala-Phe-Ser-Phe-Lys-Phe-C ({TAMRA}-FDFAFSFKF; not fully specified (C-terminus)) [Peptide 2DOS-2]”: the “retention on a polypropylene surface versus pH (in words)” value in data set [2] is “stable over a broad range of pH values”. The “retention on a hydrophobic polypropylene surface over time (in words)” value in data set [3] is on record as “stable for extended periods of time”.
For “TAMRA-F-G-F-G-F-G-F-G-F-G-F-S-F-A-F-D-F-G-F ({TAMRA}-FGFGFGFGFGFSFAFDFGF) [Peptide P1-5]”, the Average fluorescence is given as 199,347,483 in data set [1] (setting [4]); 190,847,825 in data set [1] (setting [5]); 183,492,293 in data set [1] (setting [6]); 201,991,732 in data set [1] (setting [7]); 167,865,473 in data set [1] (setting [8]); 147,812,043 in data set [1] (setting [9]). For the same substance, the Corrected signal in data set [1] (setting [4]) is 52,655,810; in data set [1] (setting [5]), 53,567,975; in data set [1] (setting [6]), 49,585,053; in data set [1] (Test array, after first wash) it was 47,493,774; in data set [1] (Test array, after second wash) it was 35,418,169; in data set [1] (Test array, after third wash), 23,514,817. In addition, the “retention on polypropylene sheet (in words)” value in data set [1] (compared among P1-1 to P1-5, chain length of 19 amino acids) is recorded as “highest retention”.
As to “TAMRA-F-G-F-G-F-S-F-A-F-D-F-G-F ({TAMRA}-FGFGFSFAFDFGF) [Peptide P1-2]”, the Average fluorescence in data set [1] (setting [4]) was 200,280,129; in data set [1] (setting [5]), 196,080,891; in data set [1] (setting [6]), 185,727,868; in data set [1] (setting [7]), 170,078,218; in data set [1] (setting [8]) it was 135,695,639; in data set [1] (setting [9]), 126,193,156. Further, the Corrected signal in data set [1] (setting [4]) is listed as 53,588,457; in data set [1] (setting [5]), 58,801,042; in data set [1] (setting [6]), 51,820,628; in data set [1] (Test array, after first wash), 15,580,260; in data set [1] (Test array, after second wash), 3,248,336; in data set [1] (Test array, after third wash), 1,895,931.
Turning to “TAMRA-F-G-F-G-F-G-F-S-F-A-F-D-F-G-F ({TAMRA}-FGFGFGFSFAFDFGF) [Peptide P1-3]”, the Average fluorescence is 192,743,469 in data set [1] (setting [4]); 187,310,655 in data set [1] (setting [5]); 184,219,147 in data set [1] (setting [6]); 171,197,973 in data set [1] (setting [7]); 148,725,456 in data set [1] (setting [8]); 125,717,642 in data set [1] (setting [9]). For the same substance, the Corrected signal in data set [1] (setting [4]) was 46,051,796; in data set [1] (setting [5]) it was 50,030,806; in data set [1] (setting [6]) it was 50,311,907; in data set [1] (Test array, after first wash), 16,700,014; in data set [1] (Test array, after second wash), 16,278,152; in data set [1] (Test array, after third wash) it was 1,420,417.
Consider “TAMRA-F-G-F-S-F-A-F-D-F-G-F ({TAMRA}-FGFSFAFDFGF) [Peptide P1-1]”, for which the Average fluorescence in data set [1] (setting [4]) is recorded as 244,263,013; in data set [1] (setting [5]) it was 225,863,933; in data set [1] (setting [6]), 218,342,010; in data set [1] (setting [7]) it was 157,624,537; in data set [1] (setting [8]), 127,216,792; in data set [1] (setting [9]), 124,941,941. Besides, the Corrected signal was 97,571,341 in data set [1] (setting [4]); 88,584,083 in data set [1] (setting [5]); 84,434,769 in data set [1] (setting [6]); 3,126,578 in data set [1] (Test array, after first wash); −5,230,512 in data set [1] (Test array, after second wash); 644,716 in data set [1] (Test array, after third wash).
